Source: patent US20100287629A1

How the values were obtained:
[1] = target: recombinant soluble human CD4 (human) (UniProt P01730); assay: SPR sensor chip; sCD4 amine-coupled, mAb flowed
[2] = target: recombinant soluble human CD4 (human) (UniProt P01730); assay: BIAcore; rCD4 coupled to chip, mAb flowed

Substance: Leu3a, mouse anti-human CD4 monoclonal antibody
- Ka [1]: 3.7e+10 M⁻¹
- koff [1]: 4.2e-06 s⁻¹
- kon [1]: 150000 M⁻¹ s⁻¹
- Ka [2]: 3.7e+10 M⁻¹
- koff [2]: 4.2e-06 s⁻¹
- kon [2]: 150000 M⁻¹ s⁻¹
